Laboratory results taken from article PMC11928058.

Experiments:
[1] = target: Rap1 (mouse (endogenous in immortalized murine lung endothelial cells)) (UniProt P62835); assay: proximity ligation; Duolink PLA read by flow cytometry; immortalized murine lung endothelial cells in suspension, in the dark or with blue light for the indicated times, rabbit anti-SHANK3 and mouse anti-Rap1; signal as fold over a sample without primary antibodies; cells with SHANK3 shRNA as control
[2] = target: Rap1 (mouse (endogenous in immortalized murine lung endothelial cells)) (UniProt P62835); assay: proximity ligation; Duolink PLA read by flow cytometry; immortalized mouse endothelial cells expressing CIBN–GFP–CAAX and CRY2–mCherry–talin, in the dark or with blue light for 30 min at room temperature, fixed, permeabilized, stained with rabbit anti-mCherry and mouse anti-Rap1; with or without overexpressed mAzurite–FLAG–WT SPN

UniProt P62835, sequence (P62835 whole entry): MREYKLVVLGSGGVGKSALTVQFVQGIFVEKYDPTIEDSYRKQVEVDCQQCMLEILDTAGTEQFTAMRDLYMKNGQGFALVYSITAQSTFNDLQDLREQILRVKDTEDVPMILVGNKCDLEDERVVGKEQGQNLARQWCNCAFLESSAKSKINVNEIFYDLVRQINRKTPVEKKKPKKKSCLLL

CRY2–mCherry–talin (full-length mouse talin-1) (from UniProt P26039 1-2541) (natural protein)
percent reduction of the PLA signal of m4 with m2 after 30 min of blue light [1]: 40%
increase of the PLA signal with blue light over dark [2]: 10%

SH3 and multiple ankyrin repeat domains 3 (SHANK3) (from UniProt Q4ACU6 1-1730) (natural protein)
PLA signal, fold over the same cells expressing SHANK3 shRNA [1]: 3 fold

mAzurite–FLAG–WT SPN (wild-type SPN domain of SHANK3) (domain or fragment)
percent reduction of the PLA signal of m1 with m2 [2]: 70%
